Among the data in US20120171195A1 are MFI values, retold here.

The target in experiment [1] is HLA-B*4701 (human). The experiment in a line: Luminex beads; MAb 1/200; competitor rHLA-E.
Another experiment concerns the target HLA-Cw*0702 (human) (UniProt P10321). Description: Luminex beads; MAb 1/200; competitor rHLA-E.
Another experiment has as its target HLA-B*4402 (human). Description: Luminex beads; MAb 1/200; competitor rHLA-E.
For experiment [2], the target named is HLA-Cw*1502 (human). The experiment in a line: Luminex beads; MAb 1/200; competitor rHLA-E.
Another experiment addresses HLA-B*4403 (human). The experiment in a line: Luminex beads; MAb 1/200; competitor rHLA-E.
A further experiment concerns the target HLA-Cw*0501 (human). The experiment in a line: Luminex beads; MAb 1/200; competitor rHLA-E.
The target in another experiment is HLA-Cw*0302 (human) (UniProt P10321). Description: Luminex beads; MAb 1/200; competitor rHLA-E.
Experiment [3] addresses HLA-B*5201 (human). Description: Luminex beads; MAb 1/200; competitor rHLA-E.
The target of the next experiment is HLA-B*5801 (human). Description: Luminex beads; MAb 1/1600; PBS only.
The target of experiment [4] is HLA-B*4701 (human). The experiment in a line: Luminex beads; MAb 1/1600; PBS only.
For another experiment, the target named is HLA-B*2708 (human) (UniProt P01889). Description: Luminex beads; MAb 1/1600; PBS only.
In another experiment the target is HLA-B*8201 (human) (UniProt P01889). The experiment in a line: Luminex beads; MAb 1/1600; PBS only.
The target of a further experiment is HLA-B*4101 (human) (UniProt P01889). Description: Luminex beads; MAb 1/1600; PBS only.
For another experiment, the target named is HLA-Cw*0303 (human). The experiment in a line: Luminex beads; MAb 1/1600; PBS only.
Experiment [5] addresses HLA-Cw*0304 (human). Description: Luminex beads; MAb 1/1600; PBS only.
The target in a further experiment is HLA-B*4501 (human). Description: Luminex beads; MAb 1/1600; PBS only.
The next experiment has as its target HLA-B*2705 (human) (UniProt P01889). Description: Luminex beads; MAb 1/1600; PBS only.
Experiment [6] addresses HLA-Cw*1502 (human). Description: Luminex beads; MAb 1/1600; PBS only.
In another experiment the target is HLA-B*4601 (human) (UniProt P01889). Description: Luminex beads; MAb 1/1600; PBS only.
For the next experiment, the target named is HLA-B*0801 (human) (UniProt P01889). The experiment in a line: Luminex beads; MAb 1/1600; PBS only.
In another experiment the target is HLA-Cw*1601 (human) (UniProt P10321). The experiment in a line: Luminex beads; MAb 1/1600; PBS only.
A further experiment deals with HLA-Cw*0202 (human). Description: Luminex beads; MAb 1/1600; PBS only.
In a further experiment the target is HLA-B*5101 (human). The experiment in a line: Luminex beads; MAb 1/1600; PBS only.
Experiment [7] has as its target HLA-B*5201 (human). Description: Luminex beads; MAb 1/1600; PBS only.
A further experiment has as its target HLA-B*1801 (B18) (human). The experiment in a line: Luminex single-antigen beads; MEM-E/02 1/600; serum Mi59 1/100.
For a further experiment, the target named is HLA-A*2901 (A29) (human) (UniProt P04439). The experiment is described as above.
The next experiment concerns the target HLA-B*2708 (B27) (human) (UniProt P01889). The description is as above.
The next experiment has as its target HLA-A*2402 (A24) (human) (UniProt P04439). The description is as above.
Another experiment deals with HLA-B*3801 (B38) (human). The description is as above.
The target of experiment [8] is HLA-Cw*0304 (human). Described as above.
The target of another experiment is HLA-A*2403 (A24) (human). The description is as above.
Experiment [9] has as its target HLA-Cw*0801 (Cw8) (human) (UniProt P10321). Described as above.
Another experiment has as its target HLA-A*3201 (A32) (human). Described as above.
The next experiment addresses HLA-B*4403 (B44) (human). The experiment is described as above.
The next experiment addresses HLA-B*6701 (B67) (human) (UniProt P01889). The experiment is described as above.
The next experiment concerns the target HLA-B*5301 (B53) (human). The description is as above.
For the next experiment, the target named is HLA-B*1301 (B13) (human). Described as above.
Another experiment addresses HLA-A*3301 (A33) (human). Described as above.
Another experiment addresses HLA-B*1401 (B64) (human) (UniProt P01889). Described as above.
Another experiment has as its target HLA-B*5401 (B54) (human) (UniProt P01889). The experiment is described as above.
Experiment [10] has as its target HLA-Cw*1203 (Cw12) (human) (UniProt P10321). Described as above.
The target in a further experiment is HLA-A*3002 (A30) (human) (UniProt P04439). The description is as above.

As to “murine monoclonal antibody (MAb) MEM-E/02”, the MFI is 67 MFI in the experiment with HLA-B*4701 (human) [1]; 137 MFI with HLA-Cw*0702 (human); 66 MFI with HLA-B*4402 (human); 86 MFI in the experiment with HLA-Cw*1502 (human) [2]; 75 MFI in the experiment with HLA-B*4403 (human); 147 MFI in the experiment with HLA-Cw*0501 (human). In addition, the MFI was 137 MFI in the experiment with HLA-Cw*0302 (human); 87 MFI in the experiment with HLA-B*5201 (human) [3]; 524 MFI in the experiment with HLA-B*5801 (human); 804 MFI with HLA-B*4701 (human) [4]; 396 MFI in the experiment with HLA-B*2708 (human); 417 MFI with HLA-B*8201 (human). Besides, the MFI worked out at 645 MFI in the experiment with HLA-B*4101 (human); 530 MFI with HLA-Cw*0303 (human); 512 MFI with HLA-Cw*0304 (human) [5]; 808 MFI with HLA-B*4501 (human); 191 MFI with HLA-B*2705 (human); 485 MFI in the experiment with HLA-Cw*1502 (human) [6]. The MFI was determined as 375 MFI in the experiment with HLA-B*4601 (human); 262 MFI with HLA-B*0801 (human); 524 MFI with HLA-Cw*1601 (human); 785 MFI in the experiment with HLA-Cw*0202 (human); 347 MFI with HLA-B*5101 (human); 537 MFI in the experiment with HLA-B*5201 (human) [7].

For the substance murine monoclonal antibody MAb MEM-E/02, the MFI with HLA-B*1801 (B18) (human) is under 500 MFI; in the experiment with HLA-A*2901 (A29) (human), under 500 MFI; with HLA-B*2708 (B27) (human) it was under 500 MFI; in the experiment with HLA-A*2402 (A24) (human) it was under 500 MFI; in the experiment with HLA-B*3801 (B38) (human) it was under 500 MFI; with HLA-Cw*0304 (human) [8], 557 MFI. Further, the MFI (with HLA-A*2403 (A24) (human); in experiment [9]; with HLA-A*3201 (A32) (human); in the experiment with HLA-B*4403 (B44) (human); in the experiment with HLA-B*6701 (B67) (human); in the experiment with HLA-B*5301 (B53) (human)) was under 500 MFI throughout. Moreover, the MFI (with HLA-B*1301 (B13) (human); with HLA-A*3301 (A33) (human); with HLA-B*1401 (B64) (human); with HLA-B*5401 (B54) (human); in experiment [10]; with HLA-A*3002 (A30) (human)) was under 500 MFI in each case.
